From publication PMC8453484 come the findings set out here.

In test [1] the target is HECT domain of NEDD4-1 (514-900) (UniProt P46934). Nature of the test: covalent labelling with an activity-based probe (SDS-PAGE, Coomassie); 10 μM E3 and 100 μM Ub-Prg in 50 mM HEPES, 100 mM NaCl, pH 8.0 at 30 °C, quenched with SDS loading dye; only the covalent (vinyl thioether) product is seen.
For test [2], the target named is HECT domain of HUWE1 (residues 3993-4374), wild type (human) (UniProt Q7Z6Z7). Described as above.
UniProt Q7Z6Z7, sequence (Q7Z6Z7 3993-4374): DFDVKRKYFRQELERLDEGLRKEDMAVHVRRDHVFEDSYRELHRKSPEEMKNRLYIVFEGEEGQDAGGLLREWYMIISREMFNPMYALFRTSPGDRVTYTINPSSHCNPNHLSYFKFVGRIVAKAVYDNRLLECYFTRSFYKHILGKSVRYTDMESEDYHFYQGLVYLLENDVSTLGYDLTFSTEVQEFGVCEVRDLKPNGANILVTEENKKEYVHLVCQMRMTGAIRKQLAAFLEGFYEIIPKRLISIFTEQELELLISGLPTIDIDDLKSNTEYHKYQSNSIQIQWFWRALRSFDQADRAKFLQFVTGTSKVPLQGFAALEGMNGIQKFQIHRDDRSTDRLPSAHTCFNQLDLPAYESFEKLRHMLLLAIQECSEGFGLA

UniProt P46934, sequence (P46934 933-1319): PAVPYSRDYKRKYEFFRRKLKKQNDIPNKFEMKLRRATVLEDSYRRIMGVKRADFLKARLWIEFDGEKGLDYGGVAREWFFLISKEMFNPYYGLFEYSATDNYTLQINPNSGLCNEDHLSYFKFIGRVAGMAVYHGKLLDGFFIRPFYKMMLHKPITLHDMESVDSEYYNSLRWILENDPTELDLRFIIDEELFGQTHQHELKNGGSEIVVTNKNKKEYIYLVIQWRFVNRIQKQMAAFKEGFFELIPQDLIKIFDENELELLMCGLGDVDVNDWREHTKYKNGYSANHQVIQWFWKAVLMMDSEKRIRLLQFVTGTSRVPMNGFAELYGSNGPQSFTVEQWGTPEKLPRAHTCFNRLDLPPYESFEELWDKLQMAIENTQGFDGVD

As for ubiquitin-propargylamine, the stoichiometry N in test [1] and in test [2] was 1 throughout.
